Laboratory results reported in IntAct's records for PubMed 31653868.

B1: Protein PIGBOS1 (Homo sapiens), A0A0B4J2F0 (parent)
chain: MFRRLTFAQLLFATVLGIAGGVYIFQPVFEQYAKDQKELKEKMQLVQESEEKKS
partner: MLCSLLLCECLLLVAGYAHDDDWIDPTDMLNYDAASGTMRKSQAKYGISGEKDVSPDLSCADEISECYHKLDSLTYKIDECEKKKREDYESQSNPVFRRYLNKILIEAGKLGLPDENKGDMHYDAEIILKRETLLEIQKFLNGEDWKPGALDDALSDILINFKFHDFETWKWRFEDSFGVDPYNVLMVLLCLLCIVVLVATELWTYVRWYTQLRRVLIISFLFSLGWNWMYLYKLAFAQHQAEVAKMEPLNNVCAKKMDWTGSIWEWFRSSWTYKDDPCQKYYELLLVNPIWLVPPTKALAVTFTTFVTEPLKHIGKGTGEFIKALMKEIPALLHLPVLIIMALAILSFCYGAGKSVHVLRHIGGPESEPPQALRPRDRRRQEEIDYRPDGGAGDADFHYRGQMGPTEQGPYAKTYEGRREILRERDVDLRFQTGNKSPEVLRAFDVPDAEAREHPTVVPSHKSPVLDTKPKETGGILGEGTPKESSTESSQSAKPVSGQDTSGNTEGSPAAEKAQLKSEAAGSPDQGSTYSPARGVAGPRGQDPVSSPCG

Variants of: B1
Conditions: with clcc1_human CLCC1, Q96S66

Variant | effect of a mutation on the interaction
MFRRLTFAQLLFATVLGIAGGVYIFQPVFAAAAKDQKELKEKMQLVQESEEKKS [E30A;Q31A;Y32A] | disrupting interaction strength
MFRRLTFAQLLFATVLGIAGGVYIFQPVFEQYAAAAKELKEKMQLVQESEEKKS [K34A;D35A;Q36A] | decreasing interaction strength
MFRRLTFAQLLFATVLGIAGGVYIFQPVFEQYAKDQAAAKEKMQLVQESEEKKS [K37A;E38A;L39A] | with no effect
MFRRLTFAQLLFATVLGIAGGVYIFQPVFEQYAKDQKELAAAMQLVQESEEKKS [K40A;E41A;K42A] | with no effect
MFRRLTFAQLLFATVLGIAGGVYIFQPVFEQYAKDQKELKEKAAAVQESEEKKS [M43A;Q44A;L45A] | with no effect
MFRRLTFAQLLFATVLGIAGGVYIFQPVFEQYAKDQKELKEKMQLAAASEEKKS [V46A;Q47A;E48A] | with no effect
MFRRLTFAQLLFATVLGIAGGVYIFQPVFEQYAKDQKELKEKMQLVQEAAAKKS [S49A;E50A;E51A] | with no effect
MFRRLTFAQLLFATVLGIAGGVYIFQPVFEQYAKDQKELKEKMQLVQESEEAAA [K52A;K53A;S54A] | with no effect
